Values quoted from earlier work, collected in patent US20190262496A1, “Compositions and Methods for Collagen-Based Sutures and Antibacterial Coatings” (UNIVERSITY HOSPITALS CLEVELAND MEDICAL CENTER, priority 2016, published 2019).

Settings: in vivo

PDGF-BB: platelet derived growth factor-BB
half-life of the growth factor: a few minutes
